Seven molecules from article PMC4138078 (2014) can be followed below.

Ends that are not written are not given here.

For assay [1], the target named is T1, CAL (CFTR-associated ligand) PDZ (Homo sapiens, UniProt Q9HD26). Description: SPR. (In SPR one partner is held on a chip, and binding of the other changes the refractive index at the surface.)
Assay [2] addresses T1, CAL (CFTR-associated ligand) PDZ. The assay is described as follows: ITC. In general terms: ITC needs no label: the signal is the heat of the interaction.

B1: iCAL36 P-1 Tfa-K (peptide)
chain: ANSRWPTSKI
Usually Kd stands for the equilibrium constant for the complex coming apart. Turning to B1, the equilibrium dissociation constant (Kd) in assay [1] was 22.3 µM; in assay [2], 34.5 µM.

B2: iCAL36 P-1 BB-K (peptide)
chain: ANSRWPTSKI
Regarding B2, the Kd in assay [1] was 20 µM; in assay [2] it was 20.7 µM.

B3: iCAL36 P-3 Ac-K (peptide)
chain: ANSRWPK(Ac)SII
Consider B3, for which the equilibrium dissociation constant (Kd) in assay [1] was found to be 122 µM; in assay [2], 91.9 µM.

B4: iCAL36 P-5 Ac-K (peptide)
chain: ANSRK(Ac)PTSII
In the case of B4, the equilibrium dissociation constant (Kd) in assay [1] amounted to 298 µM.

B5: iCAL36 P-4 Ac-K (peptide)
chain: ANSRWK(Ac)TSII
For B5, the figures for the Kd in assay [1] and in assay [2] were 64.6 µM and 49.4 µM, respectively.

B6: iCAL36 P-1 FB-K (peptide)
chain: ANSRWPTSKI
On to B6, for which the results for the Kd in assay [1] and in assay [2] were 27.9 µM and 12.8 µM, respectively.

B7: iCAL36 P-1 Ac-K (peptide)
chain: ANSRWPTSK(Ac)I
Take B7: the dissociation constant (Kd) worked out at 39.5 µM in assay [1] and 26.4 µM in assay [2].
